This is an account of results in patent publication US20240301073A1 (SCHOLAR ROCK, published 2024).

The target in assay [1] is T1, human GARP-proTGFβ1 complex (human, UniProt Q14392 20-627; P01137 30-390, limits assumed).
T1 construct: also called hGARP-proTGFβ1
The assay is described as follows: SPR (Biacore), monovalent Fab. On the technique in general: SPR reads the build-up and loss of mass on a sensor chip optically.

Assay [2] has as its target T2, human LTBP3-proTGFβ1 complex (human, UniProt Q9NS15 44-1303; P01137 30-390, limits assumed).
T2 construct: also called hLTBP3-proTGFβ1
Kind of assay: SPR (Biacore), monovalent Fab.

Assay [3] addresses T3, human LTBP1-proTGFβ1 complex (human, UniProt Q14766 347-1721; P01137 30-390).
T3 construct: also called hLTBP1-proTGFβ1
Kind of assay: SPR (Biacore), monovalent Fab.

The target in assay [4] is T4, human LRRC33-proTGFβ1 complex (human, UniProt Q86YC3 19-650; P01137 30-390, limits assumed).
T4 construct: also called hLRRC33-proTGFβ1
The assay is described as follows: SPR (Biacore), monovalent Fab.

The target in assay [5] is T1, human GARP-proTGFβ1 complex. The assay is described as follows: monovalent Fab affinity (Biacore); repeats the 12th table.
Assay [6] addresses T2, human LTBP3-proTGFβ1 complex. The description is as above.
Assay [7] addresses T3, human LTBP1-proTGFβ1 complex. The description is as above.
Assay [8] has as its target T4, human LRRC33-proTGFβ1 complex. Described as above.
Assay [9] concerns the target T2, human LTBP3-proTGFβ1 complex. Kind of assay: SPR (Biacore).
For assay [10], the target named is T3, human LTBP1-proTGFβ1 complex. Kind of assay: SPR (Biacore).
In assay [11] the target is T2, human LTBP3-proTGFβ1 complex. The assay is described as follows: binding profile; method not stated.
Assay [12] has as its target T3, human LTBP1-proTGFβ1 complex. Kind of assay: binding profile; method not stated.

T2 sequence (Q9NS15 44-1303 limits assumed, chain 1 of 2): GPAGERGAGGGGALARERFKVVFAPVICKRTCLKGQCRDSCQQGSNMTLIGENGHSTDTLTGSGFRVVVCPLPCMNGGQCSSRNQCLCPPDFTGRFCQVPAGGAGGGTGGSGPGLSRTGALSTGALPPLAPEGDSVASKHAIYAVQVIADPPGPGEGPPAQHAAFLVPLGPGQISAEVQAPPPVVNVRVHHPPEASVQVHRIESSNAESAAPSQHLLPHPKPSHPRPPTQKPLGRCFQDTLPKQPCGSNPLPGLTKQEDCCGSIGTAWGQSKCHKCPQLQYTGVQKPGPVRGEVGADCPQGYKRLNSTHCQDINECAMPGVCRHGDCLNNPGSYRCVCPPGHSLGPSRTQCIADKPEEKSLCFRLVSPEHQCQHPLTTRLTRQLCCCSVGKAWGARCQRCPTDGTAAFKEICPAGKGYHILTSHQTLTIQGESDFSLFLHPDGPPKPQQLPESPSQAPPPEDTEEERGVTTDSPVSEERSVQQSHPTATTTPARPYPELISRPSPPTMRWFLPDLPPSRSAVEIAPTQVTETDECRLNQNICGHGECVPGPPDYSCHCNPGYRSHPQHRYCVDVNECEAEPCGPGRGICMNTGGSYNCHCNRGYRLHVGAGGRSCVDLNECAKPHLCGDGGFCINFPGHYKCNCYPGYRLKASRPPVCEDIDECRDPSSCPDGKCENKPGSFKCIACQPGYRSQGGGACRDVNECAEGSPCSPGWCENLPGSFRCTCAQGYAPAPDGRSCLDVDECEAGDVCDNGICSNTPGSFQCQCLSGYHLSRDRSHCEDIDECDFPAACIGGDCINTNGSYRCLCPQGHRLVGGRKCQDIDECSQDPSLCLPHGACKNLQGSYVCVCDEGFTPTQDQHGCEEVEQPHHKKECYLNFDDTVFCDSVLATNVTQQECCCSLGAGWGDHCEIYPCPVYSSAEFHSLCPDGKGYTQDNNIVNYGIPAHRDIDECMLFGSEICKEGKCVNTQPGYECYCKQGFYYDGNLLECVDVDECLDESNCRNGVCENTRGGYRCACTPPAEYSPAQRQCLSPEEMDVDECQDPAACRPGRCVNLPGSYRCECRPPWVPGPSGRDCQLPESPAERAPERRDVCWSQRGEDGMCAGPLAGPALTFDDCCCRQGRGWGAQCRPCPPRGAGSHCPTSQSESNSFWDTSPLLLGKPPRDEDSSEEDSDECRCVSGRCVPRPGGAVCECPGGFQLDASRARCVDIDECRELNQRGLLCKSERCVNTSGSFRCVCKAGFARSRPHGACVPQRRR
T2 sequence (P01137 30-390 limits assumed, chain 2 of 2): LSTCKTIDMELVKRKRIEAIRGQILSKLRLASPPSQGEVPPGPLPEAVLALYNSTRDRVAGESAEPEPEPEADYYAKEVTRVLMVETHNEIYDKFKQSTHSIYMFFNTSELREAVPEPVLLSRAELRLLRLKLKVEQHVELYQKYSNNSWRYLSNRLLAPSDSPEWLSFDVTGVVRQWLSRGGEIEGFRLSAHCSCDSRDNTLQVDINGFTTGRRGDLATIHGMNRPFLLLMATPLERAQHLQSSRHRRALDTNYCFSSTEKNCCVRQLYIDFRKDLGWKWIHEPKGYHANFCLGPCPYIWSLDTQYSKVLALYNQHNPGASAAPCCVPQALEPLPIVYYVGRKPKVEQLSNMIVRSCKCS
T4 sequence (Q86YC3 19-650 limits assumed, chain 1 of 2): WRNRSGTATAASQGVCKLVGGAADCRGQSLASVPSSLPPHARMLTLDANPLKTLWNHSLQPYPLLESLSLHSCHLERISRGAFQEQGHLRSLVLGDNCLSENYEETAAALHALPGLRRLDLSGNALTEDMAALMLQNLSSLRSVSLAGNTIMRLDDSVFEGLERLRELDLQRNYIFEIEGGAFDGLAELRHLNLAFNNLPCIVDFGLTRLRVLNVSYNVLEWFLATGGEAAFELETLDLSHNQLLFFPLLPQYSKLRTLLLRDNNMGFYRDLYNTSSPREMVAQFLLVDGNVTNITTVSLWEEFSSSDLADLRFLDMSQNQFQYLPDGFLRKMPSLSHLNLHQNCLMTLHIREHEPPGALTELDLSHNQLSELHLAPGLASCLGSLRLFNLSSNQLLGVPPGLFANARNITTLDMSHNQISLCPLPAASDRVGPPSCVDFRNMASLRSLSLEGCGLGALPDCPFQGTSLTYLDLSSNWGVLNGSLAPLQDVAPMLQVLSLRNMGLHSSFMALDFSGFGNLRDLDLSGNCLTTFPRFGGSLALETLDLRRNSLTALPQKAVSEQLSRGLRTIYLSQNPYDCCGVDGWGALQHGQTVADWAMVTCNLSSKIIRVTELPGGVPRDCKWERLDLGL
T4 sequence (P01137 30-390 limits assumed, chain 2 of 2): as the sequence (P01137 30-390 limits assumed, chain 2 of 2) above
T3 sequence (Q14766 347-1721 limits assumed, chain 1 of 2): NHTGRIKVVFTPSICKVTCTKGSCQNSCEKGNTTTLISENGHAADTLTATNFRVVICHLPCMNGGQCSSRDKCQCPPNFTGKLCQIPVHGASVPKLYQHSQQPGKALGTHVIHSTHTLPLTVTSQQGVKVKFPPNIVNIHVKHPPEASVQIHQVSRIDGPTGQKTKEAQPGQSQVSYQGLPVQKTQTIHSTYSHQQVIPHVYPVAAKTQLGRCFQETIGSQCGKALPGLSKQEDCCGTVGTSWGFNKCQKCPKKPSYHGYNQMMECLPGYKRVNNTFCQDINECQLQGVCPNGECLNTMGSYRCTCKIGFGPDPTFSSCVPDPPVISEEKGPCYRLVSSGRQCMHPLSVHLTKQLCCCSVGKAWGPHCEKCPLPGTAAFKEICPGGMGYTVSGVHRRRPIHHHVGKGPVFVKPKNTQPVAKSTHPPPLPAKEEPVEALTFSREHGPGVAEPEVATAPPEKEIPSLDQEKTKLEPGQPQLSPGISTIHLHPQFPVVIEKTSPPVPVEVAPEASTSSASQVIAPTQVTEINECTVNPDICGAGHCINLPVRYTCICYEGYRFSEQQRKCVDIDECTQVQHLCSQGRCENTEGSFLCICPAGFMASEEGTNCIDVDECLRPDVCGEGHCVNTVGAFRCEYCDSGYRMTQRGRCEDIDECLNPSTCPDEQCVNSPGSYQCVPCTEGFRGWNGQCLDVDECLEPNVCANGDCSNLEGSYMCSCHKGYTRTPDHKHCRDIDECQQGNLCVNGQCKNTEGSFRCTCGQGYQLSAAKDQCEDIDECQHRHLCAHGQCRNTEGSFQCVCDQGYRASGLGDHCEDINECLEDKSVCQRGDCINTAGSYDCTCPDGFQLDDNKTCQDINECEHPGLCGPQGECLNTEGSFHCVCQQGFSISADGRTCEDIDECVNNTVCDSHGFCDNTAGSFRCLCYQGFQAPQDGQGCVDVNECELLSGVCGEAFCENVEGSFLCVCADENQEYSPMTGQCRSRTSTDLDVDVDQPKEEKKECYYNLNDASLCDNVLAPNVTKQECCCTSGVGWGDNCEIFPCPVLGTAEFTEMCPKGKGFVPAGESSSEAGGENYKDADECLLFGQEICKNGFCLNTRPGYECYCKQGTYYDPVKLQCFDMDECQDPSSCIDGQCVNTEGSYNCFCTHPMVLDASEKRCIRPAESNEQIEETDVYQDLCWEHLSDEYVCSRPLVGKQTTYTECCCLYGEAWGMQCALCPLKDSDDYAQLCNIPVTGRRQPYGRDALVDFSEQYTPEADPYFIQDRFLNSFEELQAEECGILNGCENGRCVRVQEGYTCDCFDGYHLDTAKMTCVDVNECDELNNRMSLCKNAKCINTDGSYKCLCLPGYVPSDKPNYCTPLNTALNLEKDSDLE
T3 sequence (P01137 30-390 limits assumed, chain 2 of 2): as the sequence (P01137 30-390 limits assumed, chain 2 of 2) above
T1 sequence (Q14392 20-627 limits assumed, chain 1 of 2): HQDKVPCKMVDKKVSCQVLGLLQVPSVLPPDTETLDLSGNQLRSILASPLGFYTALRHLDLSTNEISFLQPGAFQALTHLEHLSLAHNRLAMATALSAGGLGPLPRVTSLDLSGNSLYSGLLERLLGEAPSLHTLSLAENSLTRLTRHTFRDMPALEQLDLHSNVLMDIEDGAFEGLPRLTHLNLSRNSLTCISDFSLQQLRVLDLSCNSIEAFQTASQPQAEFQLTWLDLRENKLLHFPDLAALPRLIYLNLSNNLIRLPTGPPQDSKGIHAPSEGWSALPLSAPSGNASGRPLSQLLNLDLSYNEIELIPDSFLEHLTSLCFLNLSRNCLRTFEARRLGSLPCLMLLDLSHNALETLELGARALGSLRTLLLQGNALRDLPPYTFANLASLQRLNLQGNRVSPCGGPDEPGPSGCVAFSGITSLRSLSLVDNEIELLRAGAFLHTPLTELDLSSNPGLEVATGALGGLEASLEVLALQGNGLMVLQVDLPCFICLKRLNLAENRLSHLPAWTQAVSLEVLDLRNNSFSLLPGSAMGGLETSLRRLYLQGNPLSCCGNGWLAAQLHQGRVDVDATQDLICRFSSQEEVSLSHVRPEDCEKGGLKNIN
T1 sequence (P01137 30-390 limits assumed, chain 2 of 2): as the sequence (P01137 30-390 limits assumed, chain 2 of 2) above

B1: Ab42 human Fab (Fab, V domains shown)
VH: QVQLVESGGGVVQPGRSLRLSCAASGFTFRSYVMHWVRQAPGKGLEWVAVISHEGSLKYYADSVKGRFTISRDNSKNTLYLQMNSLRAEDTAVYYCARPRIAARRGGFGYWGQGTLVTVSS
VL: NFMLTQPHSVSESPGKTVTISCTRSSGNIDNNYVQWYQQRPGSSPTTVIYEDNQRPSGVPDRFSGSIDSSSNSASLTISGLKTEDEADYYCQSYDYDTQGVVFGGGTKLTVL
notes: Fab of Ab42; also called Ab42 Fab; Ab42 (monovalent, Fab)
A word on the Kd: it is the free concentration of one partner at which half of the binding sites on the other are occupied at equilibrium, for simple one-to-one binding. Low readings indicate tighter binding, high ones weaker binding. The koff is the first-order rate constant of dissociation. A higher koff goes with fast dissociation. Broadly, the kon is a measure of how fast the partners come together. High values mean faster complex formation, low ones slower complex formation. Consider B1, for which the Kd in assay [1] was determined as 145 nM; in assay [2], 0.57 nM; in assay [3], 0.38 nM; in [4], 134 nM; in [5], 145 nM; in [6], 0.57 nM. Besides, the dissociation constant Kd in assay [7] is 0.38 nM; in assay [8], 134 nM. Besides, the koff in assay [1] worked out at 0.006 s⁻¹; in assay [2] it was 0.000109 s⁻¹; in assay [3], 0.000111 s⁻¹; in assay [4] it was 0.00271 s⁻¹. Besides, the kon in assay [1] was 41500 M⁻¹ s⁻¹; in assay [2], 191000 M⁻¹ s⁻¹; in assay [3] it was 293000 M⁻¹ s⁻¹; in assay [4] it was 20200 M⁻¹ s⁻¹. The “fold binding selectivity compared to GARP or LRRC33 complexes” value in assay [9] and in [10] was roughly 100 fold throughout.

B2: Ab42 (antibody, V domains shown)
VH: B1 VH
VL: B1 VL
notes: also called SR-AB42; SR-Ab42
As for B2, the “fold specificity over GARP and LRRC33 complexes” value in assay [11] and in [12] was greater than 100 fold in each case.
